# T1: human FcγRIIa receptor (human, UniProt P12318 34-317)
# T1 construct: whole, on cells; also called CD32
# T1 sequence (looked up): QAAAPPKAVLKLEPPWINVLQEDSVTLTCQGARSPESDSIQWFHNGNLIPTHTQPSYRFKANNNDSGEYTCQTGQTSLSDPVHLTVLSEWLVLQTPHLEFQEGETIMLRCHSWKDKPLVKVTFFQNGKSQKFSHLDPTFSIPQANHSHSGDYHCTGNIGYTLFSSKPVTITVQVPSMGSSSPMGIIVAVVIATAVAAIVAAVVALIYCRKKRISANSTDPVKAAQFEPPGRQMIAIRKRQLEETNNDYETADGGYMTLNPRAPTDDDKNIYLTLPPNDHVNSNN
# Molecular target: T1, human FcγRIIa receptor
# Assay: flow cytometry on human platelets, 2 µM scFv, detected with anti-c-Myc-AF-488
# Procedure: Platelet-rich plasma (PRP) was obtained from whole blood after centrifugation at 200×g for 10 minutes. Washing/Suspension buffer (PBS, 0.5% BSA, 25 mM EDTA, pH 6.8) was used for platelet preparation throughout the experiment. 4 μl of PRP was incubated with HRU molecules (2 μM) for 30 minutes. Cells were washed once with 500 μl of buffer (PBS, 0.5% BSA, 25 mM EDTA, pH 6.8) and incubated with anti-c-Myc-AF-488. After washing, platelets were suspended in 200 μl of PBS and analyzed by flow cytometry (CantoII, BD Biosciences). Anti-c-Myc-AF-488 in the absence of HRU was used as negative control.
row,binding result,Binder
1,binds,"HRU2 (HRU1 linked to bivalirudin) (scFv, scFv fused to bivalirudin; also called H2) scFv: EVKLVESGPELKKPGETVKISCKASGYTFTNYGMNWVKQAPGKGLKWMGWLNTYTGESIYPDDFKGRFAFSLETSASTAYLQINNLKSEDTATYFCARGDYGYDDPLDYWGQGTSVTVSSGGGGSGGGGSGGGGSDIVMTQAPPSVPVTPGESVSISCRSSKSLLHTNGNTYLHWFLQRPGQSPRLLIYRMSVLASGVPDRFSGSGSGTAFTLSISRVEAEDVGVYYCMQHLEYPLTFGAGTKLEIKRAGGGGSGGGGSGGGGFPRPGGGGNGDFEEIPEEYL"
2,binds,"HRU4 (HRU1 with mutations) (scFv, also called H4) scFv: EVQLVESGPELKKPGETVKISCKASGYTFTNYGMNWVKQAPGKGLKWMGWLNTYTGESIYPDDFKGRFAFSLETSASTAYLQINNLKSEDTATYFCARGDYGYDDPLDYWGQGTSVTVSSGGGGSGGGGSGGGGSDIVMTQAPPSVPVTPGESVSISCRSSKSLLHTNGNTYLHWFLQKPGQSPRLLIYRMSVLASGVPDRFSGSGSGTDFTLKISRVEAEDVGVYYCMQHLEYPLTFGAGTKLEIKRAEQKLISEEDL"

# Source: US20230052153A1 (NEWSOUTH INNOVATIONS, published 2023)
